Source: patent US12077763B2, “RNA-based control of powdery mildew” (Greenlight Biosciences, Inc., priority 2021, dated 2024)

System: E. necator
Experiment: Leaf disc assay, dry inoculum (settling tower), decrease in disease severity / hyphal growth (Example 2)
Conditions: decrease in disease severity (hyphal growth) relative to untreated control, value ± SE; for % decrease =/− SE TP1: time point 1 (untreated control hyphal growth ≥50%); for % decrease =/− SE TP2: time point 2

B1: GS1884: dsRNA trigger SEQ ID NO 187; gene target Peptidyl-prolyl cis-trans isomerase ssp-1 (nucleic acid)
chain: TAATACTTCATCTGGAAGCCATCGAGTTTGCTTTTTATTATCTGAATTTTTGAGGCATTAAACTACAATACCTATTAAGGTTCAATTCAACGTTACAGTATGTAGCAGTAAATATCATTTTTGGTATAAGAATAAAAATATTCAAATTTTTACCGAAAAAAATGAAGCAGTAAGTCATATTTCTGGGTCAAGTCTCTGTAAGTCTTGCGCATCAAGCTTGCAATTGAGACTCCAAATGTGACTGGATATGTATATATATATATATATGGTGTTATAGTTGTCAAATCGAATCTATTCTATTCTTTGAATCAGATGTAGACCAGATGCTGTTTCTATGATTTGACTCATTTCTCCAACTTTGAGTTCGAATGCAGCATCTTCGAATTCTTTCTGCATATCACCTCTACCAAAGAAACCAAGGTCACCTTGTTTTTTAGCACTATTGCAATCAGACTC
Q: With B1 as the molecule, how does the “% decrease =/− SE TP1” value read?
A: 12 ± 4%

B2: GS1873: dsRNA trigger SEQ ID NO 153; gene target Probable serine/threonine-protein kinase fhkC (nucleic acid)
chain: CACATCGAGATATAAAACCCGAAAATATACTTCTCATGAATAGAACTCCTACTATTAAATTAGGTGATTTTGGCTTGGCCAAGATCGTTGGTGAGGAATCATTCACAACAAGCTTATGTGGAACACCCAGTTATGTTGCACCAGAGATCCTTGAAGACTCAGATAATCGGCGTTACAATCGAGCTGTTGATATTTGGGCTCTAGGTGTTGTTCTTTACATTTGCCTCTGTGGCTTCCCGCCATTCTCTGATGAATTGACCAGTAATGATTATCCTTACACTCTTGTCCAGCAGATTAAAATTGGTCAGTTCGACTTCCCATCGCCATATTGGGATAATATAGGAGACTCAGCTCTTGACCTCATTGACAAAATGTTAACAGTAGATGTTAACAAACGCATTAATATTGATCAATGTCTTGAACATCCATGGCTAACTCAAAGAGAATCAACGACTTTGCCAGGTGATTACTCTGAAGTTCTTGACGAACTT
Q: How did the “% decrease =/− SE TP1” value turn out when B2 was run?
A: 4 ± 4%

B3: ES45: dsRNA trigger SEQ ID NO 109; gene target Hypotethical effector (nucleic acid)
DNA: CTCACCTTGGCATCTACGAAGCCGACAGGAAGGTGGTGGCTACTATGGCCAACCATCGAATGGTGATGGAAGTGTGTATCCACCTTCATCTGGTACAGGTGGCTTTCTATCGCCAACTGCTACGAGCGGTTATCCGTCTGCAACTGGAACTGGCGGCTATTCATCTCCATCGGGCACCGGTGGCTACCCGTCTGCAACAGTTGAAAAAGACAATATTTCGAAGTTCCCGAGAGCTTTCGTATCCGGCAATGACTGCATCACGTCGAATTTCTACGATCCAAGACGAAAATAGTTTGTTTTTTTGCTGTTGGCGTGGAGTCTAGCTGTTGTGTACCCGAACCCTATTCGGATCATCAAATAGGATTGTAAGTTGGTTCATCATTTTATGAACAGATTCAAATTGTATTACCCCATTCTTAATCAATACCATGCAGGTGTGACTGACAGTC
Q: Which results are given for B3?
A: % decrease =/− SE TP1: 41 ± 5%; % decrease =/− SE TP2: 31 ± 7%

B4: GS1890: dsRNA trigger SEQ ID NO 154; gene target Pre-rRNA-processing protein FHL1 (nucleic acid)
chain: TAAAGGAATTGAAGGAGGAAAATTTGATGATGGATTGATAACAGACGGTACTTGCCCATTTATACGAGGTGGTAGCTGATAATTTGAAAAGTGACCTAATTGATTATGTGAAGATTCCATCGGGGCCCTGTACGTAAAGTGGCCTGCTATCTTTGAGAGACCATTTTGATAAGGAGTTTGTTGCAGACCTAGATAAGATTGAGGAGGCGGAGTAGCTCTCCTTTTTTTCTCTTTTTCAATAGATATACCGTCAACGATTCCCCAAGTCCAGCCTTTTCCATCCTTTTCAACTTTGCGGAAAGCATGGTGTTGTGATAGATTGTGACGAACACTACTTTGCCAGCCTAAGGTTTGAGTTTTAAATCTGAAATATGGGTATTTCCTGTATATAGCTCGGTAGATGT
Q: For B4, which “% decrease =/− SE TP1” value is on record?
A: 16 ± 5%

Q: What about the “% decrease =/− SE TP2” value of the same molecule?
A: 4 ± 5%

B5: GS1874: dsRNA trigger SEQ ID NO 120; gene target eka-like_protein (nucleic acid)
chain: CTAGAGCAGCCACGTGTAGCATGAAACCCATGACAACGTTTGCATTGTTGTATTGGTTGGCATGGTTTGTACAGTATAGCGACTCCTGATTCGTCGAATAGTCGGAATCCGGGTCATGGAGCTTGTTCTCGGGAAAAATGTGCCAGCCAAGAGCGATGTGGAGCACCAGAACGAGTCTTACCATGTACCCTAACCATCTTAGGCGCAAAGTTAGTGACTTTGATAATTTCGGCTACAAGGTTAGTATCGTCGACTGTCACACTTCCACTAGAAGTTTGACGGGCAACGGGAACAGTTGCAATACGATATGTAATAAGATCAGACGCCGGTTCTAGCTTGGCACCCTGAAAAGATATTCTATCACTGTCATTTAGTAGCTTTTGCCTTATCTCCTTTTCTTTGATAGTAAGTGCGAAGCCAGTGGGGGTTCGAGCGATGAGCGTCACATCAGATGGTACACAATTTAGATTTTTGCACAATATTT
Q: Which results are given for B5?
A: % decrease =/− SE TP1: 25 ± 4%; % decrease =/− SE TP2: 14 ± 5%

B6: GS1876: dsRNA trigger SEQ ID NO 210; gene target Uncharacterized transcriptional regulatory protein YKL222C (nucleic acid)
chain: CGCGTTCATAAAATATATCTTCATAATCAGCGTATTTAGGTGAAAGTGTAGTAGCCAATGTCCACATGGCATAGCATAGACAAATTGGAGGACGGGTCTGAATTGGACGTTCCAAAGACATGTAAAACCGGGCTTGATGTATGATGGGCATTGAAGGGTGATAGAGAGTGAAGTAGATATGATATAATTCTTTAATCATATAATCAGGCGGTAATGGTTCTTGAAGACCTAAGCTTAGTAGCTCTTTATTGATATTTGATGTAGTTTCTTTAGGCATCTGGGAGAAGCCTGAAATAGGTGGCGACGTTTCAATGGATGTAAGAAGAGGCCTACCATCAATTGCCAAATTCAAATCTATACCCATATTCCAATTTCTTTCGAGCCGGGGAGCTGCAGCATCGGGACTTATGATATCGCATTTTCCTTCCGAGTTGAGTCGAGTCTCCAATTGAGCTAGCCTAGCTTCAATTTCTTTTTCTTT
Q: For B6, which “% decrease =/− SE TP1” value is on record?
A: 20 ± 6%

Q: And the “% decrease =/− SE TP2” value?
A: 10 ± 8%

B7: GS1888: dsRNA trigger SEQ ID NO 182; gene target Succinate dehydrogenase [ubiquinone] iron-sulfur subunit, mitochondrial (nucleic acid)
chain: TTTTAGGCGTTACAATCTTCAATAAATAACTAACATCGATAACAGGTCGTATACCAGCAGATACTAGTAAAGAAACGAAGATTTACCCCCTTCCTCATACCTATGTAGTTAAGGACATCGTCCCAGATCTCACACAGTTTTACAAACAGTATAAGTCCATCAAGCCATACCTTCAACGTACATCTCCCTCACCCAATGGTAAAGAATATCTACAAAGTAAGGAGGACAGAAAAAAACTCGATGGGTTATATGAGTGCATTTTGTGCGCATGCTGTTCTACTTCATGCCCCTCTTACTGGTGGAACTCTGAAGAATACTTGGGCCCAGCTGTTCTGATGCAAAGCTATAGATGGTTAGCAGATTCTCGAGATGAAAAGACAGCTGAGCGAAAGAGTGCTCTGGATAATAGTATGAGTCTCTATCGATGTCATACCATATTAAATTGTT
Q: For B7, which “% decrease =/− SE TP1” value is on record?
A: 19 ± 6%

Q: And the “% decrease =/− SE TP2” value?
A: 19 ± 6%
